Measurements as given in patent publication US20220193191A1.

Biological target: human interleukin-4 receptor alpha chain (IL-4Rα) (human) (UniProt P24394)
Assay: cell-based or functional assay

- Eotaxin-3 IC50 (nM): inhibition of IL-4 induced eotaxin-3 release, human whole blood in vitro, 8 ng/mL IL-4 for 24 hours, ELISA: 1.5 nM
- MDC IC50 (nM): inhibition of IL-4 induced MDC release, human whole blood in vitro, 8 ng/mL IL-4 for 24 hours, ELISA: 1.1 nM
- TARC IC50 (nM): inhibition of IL-4 induced TARC release, human whole blood in vitro, 8 ng/mL IL-4 for 24 hours, ELISA: 0.8 nM
- pSTAT IC50 (nM): inhibition of IL-4 stimulated STAT6 phosphorylation in CD3+ T cells, human whole blood in vitro, 8 ng/mL IL-4 for 15 minutes, FACS: 0.8 nM
B1: Reference IL-4Rα antibody (Dupilumab) (antibody, INN chains, looked up, V domains shown)
VH: EVQLVESGGGLEQPGGSLRLSCAGSGFTFRDYAMTWVRQAPGKGLEWVSSISGSGGNTYYADSVKGRFTISRDNSKNTLYLQMNSLRAEDTAVYYCAKDRLSITIRPRYYGLDVWGQGTTVTVSS
VL: DIVMTQSPLSLPVTPGEPASISCRSSQSLLYSIGYNYLDWYLQKSGQSPQLLIYLGSNRASGVPDRFSGSGSGTDFTLKISRVEAEDVGFYYCMQALQTPYTFGQGTKLEIKR
